Laboratory results: patent publication US6896881

Assays:
[1] = molecular target: human IGF1 receptor on 3T3-hIGF1r cells (human) (UniProt P08069); assay: flow cytometry on 3T3-hIGF1r cells; 5.7 is the secondary antibody alone
[2] = molecular target: human EGF receptor on CHO-hEGFr cells (human) (UniProt P00533); assay: flow cytometry on CHO-hEGFr cells; 3.9 is the secondary antibody alone

Sequence of UniProt P08069 (P08069 31-1367): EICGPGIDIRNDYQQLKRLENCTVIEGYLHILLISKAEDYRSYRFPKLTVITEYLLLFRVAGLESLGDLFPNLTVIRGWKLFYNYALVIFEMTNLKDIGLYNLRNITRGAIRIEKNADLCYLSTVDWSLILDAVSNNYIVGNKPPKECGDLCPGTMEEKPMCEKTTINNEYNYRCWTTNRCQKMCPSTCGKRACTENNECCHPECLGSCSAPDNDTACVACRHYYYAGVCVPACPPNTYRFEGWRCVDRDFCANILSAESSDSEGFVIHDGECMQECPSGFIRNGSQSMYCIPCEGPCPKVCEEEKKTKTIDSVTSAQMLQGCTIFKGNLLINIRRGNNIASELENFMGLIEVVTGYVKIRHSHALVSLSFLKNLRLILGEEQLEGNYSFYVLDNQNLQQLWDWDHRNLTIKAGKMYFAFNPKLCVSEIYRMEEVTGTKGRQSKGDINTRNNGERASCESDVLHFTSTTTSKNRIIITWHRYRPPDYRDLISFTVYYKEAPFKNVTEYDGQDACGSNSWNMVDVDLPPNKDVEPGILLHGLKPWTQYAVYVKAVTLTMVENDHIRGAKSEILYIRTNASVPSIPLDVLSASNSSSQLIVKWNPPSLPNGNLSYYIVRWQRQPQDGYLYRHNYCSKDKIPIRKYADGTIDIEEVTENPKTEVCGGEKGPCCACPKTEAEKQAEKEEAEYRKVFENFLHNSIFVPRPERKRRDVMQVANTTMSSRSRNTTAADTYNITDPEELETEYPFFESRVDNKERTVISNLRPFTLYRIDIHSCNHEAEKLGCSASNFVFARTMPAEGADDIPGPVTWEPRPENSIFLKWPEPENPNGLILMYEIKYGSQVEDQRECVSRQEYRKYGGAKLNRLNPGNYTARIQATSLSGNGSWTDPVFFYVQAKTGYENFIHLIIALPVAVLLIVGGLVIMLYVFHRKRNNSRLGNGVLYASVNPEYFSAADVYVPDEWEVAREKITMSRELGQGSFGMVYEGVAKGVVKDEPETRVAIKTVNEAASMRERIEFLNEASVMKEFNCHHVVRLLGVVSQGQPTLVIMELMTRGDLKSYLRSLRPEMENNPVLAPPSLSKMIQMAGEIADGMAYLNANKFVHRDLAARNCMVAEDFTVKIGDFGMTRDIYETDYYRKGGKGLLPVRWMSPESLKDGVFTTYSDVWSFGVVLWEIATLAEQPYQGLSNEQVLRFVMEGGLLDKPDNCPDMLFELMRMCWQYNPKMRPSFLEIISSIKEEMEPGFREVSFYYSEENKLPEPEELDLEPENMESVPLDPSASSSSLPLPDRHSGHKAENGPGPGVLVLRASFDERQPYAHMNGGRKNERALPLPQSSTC

Substance	mean fluorescence [1]	mean fluorescence [2]
monoclonal anti-hIGF1r antibody clone 33255.111 (R&D Systems, MAB391)	251	
monoclonal anti-hEGFr antibody clone 528 (Santa Cruz, sc-120)		466
